Results on four proteins are retold here after patent publication US20080306007.

Residue numbers refer to the chain shown, from its start.

Data set [1] deals with syndapin I (native, from rat brain lysate or synaptosomes).
For data set [2], the target named is T1, endophilin I (native, from rat brain lysate or synaptosomes), O35179.
T1 chain: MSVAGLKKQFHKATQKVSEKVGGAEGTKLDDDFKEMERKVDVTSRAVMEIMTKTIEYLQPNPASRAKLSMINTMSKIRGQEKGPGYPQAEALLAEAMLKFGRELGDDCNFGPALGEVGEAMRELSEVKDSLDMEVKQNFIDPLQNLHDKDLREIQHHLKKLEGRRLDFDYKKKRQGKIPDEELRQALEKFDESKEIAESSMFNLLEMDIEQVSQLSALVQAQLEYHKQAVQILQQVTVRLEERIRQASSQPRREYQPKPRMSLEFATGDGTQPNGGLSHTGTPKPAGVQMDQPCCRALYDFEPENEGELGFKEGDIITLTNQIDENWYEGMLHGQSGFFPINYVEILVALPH

Chain of syndapin I (native, from rat brain lysate or synaptosomes) (chain, as listed by the source): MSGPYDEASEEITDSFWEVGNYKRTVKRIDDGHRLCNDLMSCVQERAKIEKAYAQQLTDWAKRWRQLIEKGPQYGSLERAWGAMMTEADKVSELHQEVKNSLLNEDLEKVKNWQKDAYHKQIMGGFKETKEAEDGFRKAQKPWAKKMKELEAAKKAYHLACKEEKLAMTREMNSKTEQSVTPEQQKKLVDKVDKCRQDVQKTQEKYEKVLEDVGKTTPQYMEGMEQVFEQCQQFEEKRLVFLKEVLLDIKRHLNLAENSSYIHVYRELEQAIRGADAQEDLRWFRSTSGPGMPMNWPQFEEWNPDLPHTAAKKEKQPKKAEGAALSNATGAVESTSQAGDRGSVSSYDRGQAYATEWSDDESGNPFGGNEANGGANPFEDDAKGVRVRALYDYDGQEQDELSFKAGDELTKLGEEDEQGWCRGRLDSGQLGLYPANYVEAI

B1: DynI-PB2-GFP (protein)
chain: MGNRGMEDLIPLVNRLQDAFSAIGQNADLDLPQIAVVGGQSAGKSSVLENFVGRDFLPRGSGIVTRRPLVLQLVNSTTEYAEFLHCKGKKFTDFEEVRLEIEAETDRVTGTNKGISPVPINLRVYSPHVLNLTLVDLPGMTKVPVGDQPPDIEFQIRDMLMQFVTKENCLILAVSPANSDLANSDALKIAKEVDPQGQRTIGVITKLDLMDEGTDARDVLENKLLPLRRGYIGVVNRSQKDIDGKKDITAALAAERKFFLSHPSYRHLADRMGTPYLQKVLNQQLTNHIRDTLPGLRNKLQSQLLSIEKEVDEYKNFRPDDPARKTKALLQMVQQFAVDFEKRIEGSGDQIDTYELSGGARINRIFHERFPFELVKMEFDEKELRREISYAIKNIHGIRTGLFTPDLAFEATVKKQVQKLKEPSIKCVDMVVSELTSTIRKCSEKLQQYPRLREEMERIVTTHIREREGRTKEQVMLLIDIELAYMNTNHEDFIGFANAQQRSNQMNKKKTSGNQDEILVIRKGWLTINNIGIMKGGSKEYWFVLTAENLSWYKDDEEKEKKYMLSVDNLKLRDVEKGFMSSKHIFALFNTEQRNVYKDYRQLELACETQEEVDSWKASFLRAGVYPERVGDKEKASETEENGSDSFMHSMDPQLERQVETIRNLVDSYMAIVNKTVRDLMPKTIMHLMINNTKEFIFSELLANLYSCGDQNTLMEESAEQAQRRDEMLRMYHALKEALSIIGDINTTTVSTPMPPPVDDSWLQVQSVPAGEESPTSSPTPQRRAPAVPPARPGSRGPAPGPPPAGSALGGAPPVPSRPGASPDPFGPPPQVPSRPNRAPPGVPSRSGQASPSRPESPRPPFDL
For the protein B1, the “total synaptic recycling pool (FM4-64) in transfected CGNs” value in data set [1] is on record as 59.5±4.3% of control for DynI-PB2-GFP.

B2: DynI^dmE-GFP (protein)
chain: B1 chain with E772R, E773R, S774E, S778E
In the case of B2, the “total SV recycling pool (FM4-64) in transfected CGNs” value in data set [1] is 64.4±6.2% of control.

B3: DynI^dmA-GFP (protein)
chain: B1 chain with E772R, E773R, S774A, S778A
For the protein B3, the “total SV recycling pool (FM4-64) in transfected CGNs” value in data set [1] is reported as 28±3.5% of control.

B4: DynI-3B-GFP (protein)
chain: B1 chain with E772R, E773R, P793A
As for B4, the “total synaptic recycling pool (FM4-64) in transfected CGNs” value in data set [2] came out at 56.8±4.4% for DynI-3B-GFP.
